The results in this text go back to publication PMC10368727, “Sequestration of histidine kinases by non-cognate response regulators establishes a threshold level of stimulation for bacterial two-component signaling” (Nature Communications, 2023).

By Kd is commonly meant the constant that tells how readily two partners part at equilibrium. High values mean weaker binding, low ones tighter binding.

T1: phosphorylated, histidine tag labeled HK PrrB (cytosolic catalytic domain) (M. tuberculosis, UniProt P9WGK7 172-446)
T1 construct: also called PrrB~P
T1 sequence: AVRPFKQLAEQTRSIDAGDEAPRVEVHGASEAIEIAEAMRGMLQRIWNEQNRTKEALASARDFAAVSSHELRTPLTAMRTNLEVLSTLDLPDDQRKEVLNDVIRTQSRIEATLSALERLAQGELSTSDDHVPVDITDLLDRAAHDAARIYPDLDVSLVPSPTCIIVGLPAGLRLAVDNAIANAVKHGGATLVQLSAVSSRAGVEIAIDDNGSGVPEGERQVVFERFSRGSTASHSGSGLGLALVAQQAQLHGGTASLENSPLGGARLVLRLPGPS

T2: phosphorylated, histidine tag labeled HK KdpD (cytosolic catalytic domain) (M. tuberculosis, UniProt P9WGL3 532-860)
T2 construct: also called KdpD~P
T2 sequence: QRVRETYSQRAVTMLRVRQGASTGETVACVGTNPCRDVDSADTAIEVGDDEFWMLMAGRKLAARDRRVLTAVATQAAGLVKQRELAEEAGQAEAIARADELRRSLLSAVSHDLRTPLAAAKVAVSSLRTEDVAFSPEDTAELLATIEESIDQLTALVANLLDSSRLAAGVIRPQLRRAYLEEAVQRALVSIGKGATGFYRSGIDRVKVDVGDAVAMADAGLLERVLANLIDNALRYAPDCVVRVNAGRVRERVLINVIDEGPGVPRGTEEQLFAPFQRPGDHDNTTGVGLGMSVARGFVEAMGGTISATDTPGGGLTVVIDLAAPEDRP

B1: GFP-tagged MtrB, unphosphorylated (cytosolic catalytic domain) (domain or fragment)
chain: SRQVVVPVRSASRIAERFAEGHLSERMPVRGEDDMARLAVSFNDMAESLSRQIAQLEEFGNLQRRFTSDVSHELRTPLTTVRMAADLIYDHSADLDPTLRRSTELMVSELDRFETLLNDLLEISRHDAGVAELSVEAVDLRTTVNNALGNVGHLAEEAGIELLVDLPAEQVIAEVDARRVERILRNLIANAIDHAEHKPVRIRMAADEDTVAVTVRDYGVGLRPGEEKLVFSRFWRSDPSRVRRSGGTGLGLAISVEDARLHQGRLEAWGEPGEGACFRLTLPMVRGHKVTTSPLPMKPIPQPVLQPVAQPNPQPMPPEYKERQRPREHAEWSG
notes: also called MtrB-GFP
B2: phosphorylated, GFP-tagged HK MtrB (cytosolic catalytic domain) (domain or fragment)
chain: B1 chain
notes: also called MtrB~P; P~MtrB-GFP
B3: response regulator MprA (natural protein)
chain: MSVRILVVDDDRAVRESLRRSLSFNGYSVELAHDGVEALDMIASDRPDALVLDVMMPRLDGLEVCRQLRGTGDDLPILVLTARDSVSERVAGLDAGADDYLPKPFALEELLARMRALLRRTKPEDAAESMAMRFSDLTLDPVTREVNRGQRRISLTRTEFALLEMLIANPRRVLTRSRILEEVWGFDFPTSGNALEVYVGYLRRKTEADGEPRLIHTVRGVGYVLRETPP
B4: response regulator MtrA (natural protein)
chain: MDTMRQRILVVDDDASLAEMLTIVLRGEGFDTAVIGDGTQALTAVRELRPDLVLLDLMLPGMNGIDVCRVLRADSGVPIVMLTAKTDTVDVVLGLESGADDYIMKPFKPKELVARVRARLRRNDDEPAEMLSIADVEIDVPAHKVTRNGEQISLTPLEFDLLVALARKPRQVFTRDVLLEQVWGYRHPADTRLVNVHVQRLRAKVEKDPENPTVVLTVRGVGYKAGPP
notes: also called cognate RR MtrA
B5: response regulator PrrA (natural protein)
chain: MDTGVTSPRVLVVDDDSDVLASLERGLRLSGFEVATAVDGAEALRSATENRPDAIVLDINMPVLDGVSVVTALRAMDNDVPVCVLSARSSVDDRVAGLEAGADDYLVKPFVLAELVARVKALLRRRGSTATSSSETITVGPLEVDIPGRRARVNGVDVDLTKREFDLLAVLAEHKTAVLSRAQLLELVWGYDFAADTNVVDVFIGYLRRKLEAGGGPRLLHTVRGVGFVLRMQ
B6: phosphorylated, GFP-tagged HK PhoR (cytosolic catalytic domain) (domain or fragment)
chain: RRSLRPLAEFEQTAAAIGAGQLDRRVPQWHPRTEVGRLSLALNGMLAQIQRAVASAESSAEKARDSEDRMRQFITDASHELRTPLTTIRGFAELYRQGAARDVGMLLSRIESEASRMGLLVDDLLLLARLDAHRPLELCRVDLLALASDAAHDARAMDPKRRITLEVLDGPGTPEVLGDESRLRQVLRNLVANAIQHTPESADVTVRVGTEGDDAILEVADDGPGMSQEDALRVFERFYRADSSRARASGGTGLGLSIVDSLVAAHGGAVTVTTALGEGCCFRVSLPRVSDVDQLSLTPVVPGPP
notes: also called PhoR-GFP; PhoR~P
B7: response regulator TcrA (natural protein)
chain: MADETTMRAGRGPGRACGRVSGVRILVVEDEPKMTALLARALTEEGHTVDTVADGRHAVAAVDGGDYDAVVLDVMLPGIDGFEVCARLRRQRVWTPVLMLTARGAVTDRIAGLDGGADDYLTKPFNLDELFARLRALSRRGPIPRPPTLEAGDLRLDPSEHRVWRADTEIRLSHKEFTLLEALIRRPGIVHTRAQLLERCWDAAYEARSNIVDVYIRYLRDKIDRPFGVTSLETIRGAGYRLRKDGGRHALPR
B8: response regulator KdpE (natural protein)
chain: MTLVLVIDDEPQILRALRINLTVRGYQVITASTGAGALRAAAEHPPDVVILDLGLPDMSGIDVLGGLRGWLTAPVIVLSARTDSSDKVQALDAGADDYVTKPFGMDEFLARLRAAVRRNTAAAELEQPVIETDSFTVDLAGKKVIKDGAEVHLTPTEWGMLEMLARNRGKLVGRGELLKEVWGPAYATETHYLRVYLAQLRRKLEDDPSHPKHLLTESGMGYRFEA
B9: response regulator NarL (natural protein)
chain: MSNPQPEKVRVVVGDDHPLFREGVVRALSLSGSVNVVGEADDGAAALELIKAHLPDVALLDYRMPGMDGAQVAAAVRSYELPTRVLLISAHDEPAIVYQALQQGAAGFLLKDSTRTEIVKAVLDCAKGRDVVAPSLVGGLAGEIRQRAAPVAPVLSAREREVLNRIACGQSIPAIAAELYVAPSTVKTHVQRLYEKLGVSDRAAAVAEAMRQRLLD
notes: also called non-cognate RR NarL
B10: phosphorylated, histidine tag labeled HK DevS (cytosolic catalytic domain) (domain or fragment)
chain: LATSQRRMRELDVLTDRDRIARDLHDHVIQRLFAIGLALQGAVPHERNPEVQQRLSDVVDDLQDVIQEIRTTIYDLHGASQGITRLRQRIDAAVAQFADSGLRTSVQFVGPLSVVDSALADQAEAVVREAVSNAVRHAKASTLTVRVKVDDDLCIEVTDNGRGLPDEFTGSGLTNLRQRAEQAGGEFTLASVPGASGTVLRWSAPLSQ
notes: also called DevS~P
B11: response regulator TcrX (natural protein)
chain: MRRADGQPVTVLVVDDEPVLAEMVSMALRYEGWNITTAGDGSSAIAAARRQRPDVVVLDVMLPDMSGLDVLHKLRSENPGLPVLLLTAKDAVEDRIAGLTAGGDDYVTKPFSIEEVVLRLRALLRRTGVTTVDSGAQLVVGDLVLDEDSHEVMRAGEPVSLTSTEFELLRFMMHNSKRVLSKAQILDRVWSYDFGGRSNIVELYISYLRKKIDNGREPMIHTLRGAGYVLKPAR

Read-outs that look alike come from different tables or passages of the source.

What all share (conditions): both partners purified
Assay [1] concerns the target T3, response regulator PhoP (M. tuberculosis, UniProt P71814 1-247). Put plainly: MST; GFP-tagged MtrB in the unphosphorylated state titrated with RR.
Assay [2] deals with T3, response regulator PhoP.
Assay [3] concerns the target T1, phosphorylated, histidine tag labeled …. Put plainly: MST.
Assay [4] has as its target B2. Put plainly: MST.
Assay [5] addresses B1. Description: MST; GFP-tagged MtrB in the unphosphorylated state titrated with RR.
For assay [6], the target named is B6.
Assay [7] has as its target T2, phosphorylated, histidine tag labeled …. Description: MST.
Assay [8] concerns the target B9. Description: MST.
Assay [9] concerns the target response regulator DevR (M. tuberculosis, UniProt P9WMF9 1-217). Description: MST.

Chain of response regulator DevR (P9WMF9 whole entry): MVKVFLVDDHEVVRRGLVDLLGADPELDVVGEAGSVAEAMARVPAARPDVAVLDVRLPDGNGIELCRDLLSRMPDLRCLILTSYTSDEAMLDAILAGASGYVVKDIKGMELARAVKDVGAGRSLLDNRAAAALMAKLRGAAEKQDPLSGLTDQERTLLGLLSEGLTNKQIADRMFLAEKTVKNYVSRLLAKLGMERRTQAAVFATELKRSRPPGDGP

B1 came in with a Kd in assay [1] of 18100 ± 2740 nM.
In [2], B2 showed a Kd of 3580 ± 121 nM.
B3 displayed a Kd in assay [3] of 1960 nM.
As to B4, the values for the Kd in [4] and in [5] were 444 ± 117 nM and 936 ± 113 nM, respectively.
As to B5, the Kd in assay [3] came out at 4310 nM. In other words, the single-digit micromolar range.
Take B6: the affinity in [2], expressed as Kd, was 1480 nM.
In the case of B7, the dissociation constant Kd turned out to be 3070 ± 74 nM in [4] and 1830 nM in assay [6].
As to B8, the Kd in assay [7] amounted to 4490 nM; in [4], 868 ± 100 nM.
B9: the Kd in [7] is 355 nM; in [4] it was 83 ± 15 nM; in [5], 402 ± 58 nM.
Regarding B10, the Kd is 325 nM in assay [8] and 13200 nM in assay [9].
For the molecule B11, the Kd came out at 82 ± 12 nM in assay [4], 484 nM in assay [6] and 21700 ± 5020 nM in [5].
